This is an account of results in patent US20190225669A1 (ACCELERON PHARMA, published 2019).

Assay [1] has as its target T1, BMP9 (UniProt Q9UK05 320-429).
T1 construct: also called GDF2
T1 sequence (looked up): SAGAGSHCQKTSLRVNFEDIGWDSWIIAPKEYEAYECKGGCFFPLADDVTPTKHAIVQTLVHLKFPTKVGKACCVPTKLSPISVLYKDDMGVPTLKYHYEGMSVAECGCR
Nature of the assay: Biacore SPR; kinetics indeterminate (transient). The method, then:
(§1) Ligands were injected and allowed to flow over the captured receptor protein.

A further assay deals with T2, GDF3 (UniProt Q9NR23 251-364).
T2 sequence (looked up): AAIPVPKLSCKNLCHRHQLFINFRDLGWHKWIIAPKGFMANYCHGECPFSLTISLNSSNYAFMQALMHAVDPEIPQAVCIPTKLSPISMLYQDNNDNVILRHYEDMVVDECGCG
Nature of the assay: Biacore SPR. The method, then: as §1

Another assay addresses T3, BMP6 (UniProt P22004 382-513, limits assumed).
T3 sequence (looked up): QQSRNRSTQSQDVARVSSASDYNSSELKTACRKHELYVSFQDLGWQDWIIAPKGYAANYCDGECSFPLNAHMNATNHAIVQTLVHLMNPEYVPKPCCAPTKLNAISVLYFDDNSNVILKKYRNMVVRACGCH
Nature of the assay: Biacore SPR. The method, then:
as §1

The target in a further assay is T4, GDF8 (UniProt O14793 267-375).
T4 construct: also called myostatin
T4 sequence (looked up): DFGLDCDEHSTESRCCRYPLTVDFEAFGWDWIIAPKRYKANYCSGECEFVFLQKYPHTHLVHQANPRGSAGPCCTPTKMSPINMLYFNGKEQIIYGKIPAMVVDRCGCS
Description: Biacore SPR. The method, then: as §1

Assay [2] has as its target T5, activin A (UniProt P08476 311-426).
T5 sequence (looked up): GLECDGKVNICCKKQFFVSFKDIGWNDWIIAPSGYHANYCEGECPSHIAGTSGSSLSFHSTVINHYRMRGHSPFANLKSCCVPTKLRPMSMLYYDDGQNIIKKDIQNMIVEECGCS
Description: Biacore SPR. The method, then:
as §1

Assay [3] addresses T6, BMP10 (UniProt O95393 317-424).
T6 sequence (looked up): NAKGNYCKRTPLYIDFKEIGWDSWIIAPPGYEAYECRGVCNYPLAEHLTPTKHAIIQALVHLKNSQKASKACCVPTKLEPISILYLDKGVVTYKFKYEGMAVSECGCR
Nature of the assay: Biacore SPR. Here is the method: as §1

Assay [4] addresses T7, activin B (UniProt P09529 293-407).
T7 sequence (looked up): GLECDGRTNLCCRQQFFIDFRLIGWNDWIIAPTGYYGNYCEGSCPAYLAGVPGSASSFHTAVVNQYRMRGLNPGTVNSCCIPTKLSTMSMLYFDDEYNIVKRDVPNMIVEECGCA
Nature of the assay: Biacore SPR. Here is the method: as §1

The next assay deals with T8, GDF11 (UniProt O95390 299-407).
T8 construct: also called BMP11
T8 sequence (looked up): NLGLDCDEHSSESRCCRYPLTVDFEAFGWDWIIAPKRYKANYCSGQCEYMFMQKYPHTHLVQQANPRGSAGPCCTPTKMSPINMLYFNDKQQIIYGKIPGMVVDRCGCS
Nature of the assay: Biacore SPR. Here is the method:
as §1

Assay [5] concerns the target T5, activin A. Nature of the assay: Biacore SPR. Here is the method: as §1
This is another data set of the same source.

For another assay, the target named is T9, activin AB (UniProt P08476 311-426; P09529 293-407).
T9 sequence (looked up) 1: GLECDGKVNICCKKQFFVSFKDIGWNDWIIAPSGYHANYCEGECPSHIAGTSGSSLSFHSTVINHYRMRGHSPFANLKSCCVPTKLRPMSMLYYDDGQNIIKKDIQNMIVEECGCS
T9 sequence (looked up) 2: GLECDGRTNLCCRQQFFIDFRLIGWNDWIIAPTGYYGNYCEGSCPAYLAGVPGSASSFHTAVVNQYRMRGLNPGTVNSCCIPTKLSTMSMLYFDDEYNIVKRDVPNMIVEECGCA
Nature of the assay: Biacore SPR. The method, then: as §1

The target of assay [6] is T10, BMP15 (UniProt O95972 268-392).
T10 construct: also called GDF9b
T10 sequence (looked up): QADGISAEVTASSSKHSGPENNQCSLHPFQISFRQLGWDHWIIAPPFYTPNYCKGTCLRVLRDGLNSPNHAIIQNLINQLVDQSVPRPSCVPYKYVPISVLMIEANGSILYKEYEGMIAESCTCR
Nature of the assay: Biacore SPR. The method, then:
as §1

Assay [7] deals with T6, BMP10. Description: Biacore SPR. Here is the method:
as §1
The source holds these as a separate data set.

Assay [8] has as its target T7, activin B. Description: Biacore SPR. The method, then: as §1
This is another data set of the same source.

The target of another assay is T11, BMP7 (UniProt P18075 293-431).
T11 sequence (looked up): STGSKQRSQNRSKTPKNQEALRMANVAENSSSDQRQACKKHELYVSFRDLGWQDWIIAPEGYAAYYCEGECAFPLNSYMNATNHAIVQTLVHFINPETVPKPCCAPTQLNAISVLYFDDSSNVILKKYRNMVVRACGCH
Description: Biacore SPR. Here is the method: (§2) A Biacore™-based binding assay was used to compare ligand binding selectivity of the BMPRII-Fc:ALK2-Fc heterodimeric complex described above with that of BMPRII-Fc and ALK2-Fc homodimeric complexes. […] Ligands were injected and allowed to flow over the captured receptor protein.

Assay [9] has as its target T1, BMP9. Description: Biacore SPR. Here is the method:
as §2

The target of assay [10] is T10, BMP15. Description: Biacore SPR. The method, then: as §2
The source holds these as a separate data set.

A further assay addresses T12, BMP5 (UniProt P22003 317-454, limits assumed).
T12 sequence (looked up): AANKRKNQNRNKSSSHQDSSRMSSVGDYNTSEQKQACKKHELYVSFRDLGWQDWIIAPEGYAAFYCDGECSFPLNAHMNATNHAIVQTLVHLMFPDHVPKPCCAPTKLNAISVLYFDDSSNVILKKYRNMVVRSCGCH
Nature of the assay: Biacore SPR. The method, then: as §2

For assay [11], the target named is T6, BMP10. Description: Biacore SPR. Here is the method:
as §2
This is another data set of the same source.

The target in assay [12] is T7, activin B. Nature of the assay: Biacore SPR. Here is the method: as §2
The source holds these as a separate data set.

Where two headings read alike, the source gives them in different places.

B1: ActRIIB-Fc:ALK4-Fc heterodimer (Fc fusion)
chain 1: GRGEAETRECIYYNANWELERTNQSGLERCEGEQDKRLHCYASWRNSSGTIELVKKGCWLDDFNCYDRQECVATEENPQVYFCCCEGNFCNERFTHLPEAGGPEVTYEPPPTAPTGGGTHTCPPCPAPELLGGPSVFLFPPKPKDTLMISRTPEVTCVVVDVSHEDPEVKFNWYVDGVEVHNAKTKPREEQYNSTYRVVSVLTVLHQDWLNGKEYKCKVSNKALPAPIEKTISKAKGQPREPQVYTLPPSRKEMTKNQVSLTCLVKGFYPSDIAVEWESNGQPENNYKTTPPVLKSDGSFFLYSKLTVDKSRWQQGNVFSCSVMHEALHNHYTQKSLSLSPGK
chain 2: SGPRGVQALLCACTSCLQANYTCETDGACMVSIFNLDGMEHHVRTCIPKVELVPAGKPFYCLSSEDLRNTHCCYTDYCNRIDLRVPSGHLKEPEHPSMWGPVETGGGTHTCPPCPAPELLGGPSVFLFPPKPKDTLMISRTPEVTCVVVDVSHEDPEVKFNWYVDGVEVHNAKTKPREEQYNSTYRVVSVLTVLHQDWLNGKEYKCKVSNKALPAPIEKTISKAKGQPREPQVYTLPPSREEMTKNQVSLTCLVKGFYPSDIAVEWESNGQPENNYDTTPPVLDSDGSFFLYSDLTVDKSRWQQGNVFSCSVMHEALHNHYTQKSLSLSPG
notes: C-terminal Lys optional; also called ActRIIB-Fc:ALK4-Fc heterodimeric complex; ActRIIB-Fc:ALK4-Fc heteromeric complex
Take B1: the Kd is 3.4 nM with BMP9 [1]; 4.9 nM with GDF3; 2.7 nM with BMP6; 0.55 nM in the assay with GDF8; 0.012 nM with activin A [2]; 0.074 nM in the assay with BMP10 [3]. Besides, the values for the Kd with activin B [4] and in the assay with GDF11 were 0.006 nM and 0.003 nM, respectively. In addition, the koff with GDF3 was found to be 0.017 s⁻¹; with BMP6, 0.0055 s⁻¹; with GDF8, 0.00021 s⁻¹; with activin A [2], 0.00015 s⁻¹; with BMP10 [3] it was 0.0041 s⁻¹; with activin B [4] it was 4e-05 s⁻¹. In the assay with GDF11, this molecule displayed a koff of 0.00011 s⁻¹. The kon with GDF3 stood at 3.4e+06 M⁻¹ s⁻¹; with BMP6 it was 2e+06 M⁻¹ s⁻¹; in the assay with GDF8 it was 390000 M⁻¹ s⁻¹; with activin A [2], 1.3e+07 M⁻¹ s⁻¹; with BMP10 [3] it was 5.6e+07 M⁻¹ s⁻¹; in the assay with activin B [4] it was 7.1e+06 M⁻¹ s⁻¹. The molecule also showed a kon with GDF11 of 3.8e+07 M⁻¹ s⁻¹.

B2: BMPRII-Fc:ALK4-Fc heterodimer (Fc fusion)
chain 1: SQNQERLCAFKDPYQQDLGIGESRISHENGTILCSKGSTCYGLWEKSKGDINLVKQGCWSHIGDPQECHYEECVVTTTPPSIQNGTYRFCCCSTDLCNVNFTENFPPPDTTPLSPPHSFNRDETGGGTHTCPPCPAPELLGGPSVFLFPPKPKDTLMISRTPEVTCVVVDVSHEDPEVKFNWYVDGVEVHNAKTKPREEQYNSTYRVVSVLTVLHQDWLNGKEYKCKVSNKALPAPIEKTISKAKGQPREPQVYTLPPSRKEMTKNQVSLTCLVKGFYPSDIAVEWESNGQPENNYKTTPPVLKSDGSFFLYSKLTVDKSRWQQGNVFSCSVMHEALHNHYTQKSLSLSPGK
chain 2: SGPRGVQALLCACTSCLQANYTCETDGACMVSIFNLDGMEHHVRTCIPKVELVPAGKPFYCLSSEDLRNTHCCYTDYCNRIDLRVPSGHLKEPEHPSMWGPVETGGGTHTCPPCPAPELLGGPSVFLFPPKPKDTLMISRTPEVTCVVVDVSHEDPEVKFNWYVDGVEVHNAKTKPREEQYNSTYRVVSVLTVLHQDWLNGKEYKCKVSNKALPAPIEKTISKAKGQPREPQVYTLPPSREEMTKNQVSLTCLVKGFYPSDIAVEWESNGQPENNYDTTPPVLDSDGSFFLYSDLTVDKSRWQQGNVFSCSVMHEALHNHYTQKSLSLSPG
notes: C-terminal Lys optional; also called BMPRII-Fc:ALK4-Fc heterodimeric complex
For B2, the Kd was 1.1 nM in the assay with activin A [5]; 0.14 nM with activin AB; 1.7 nM with BMP15 [6]; 2.2 nM with BMP10 [7]; 1.7 nM in the assay with activin B [8]; > 140 nM in the assay with BMP9 [1]. The koff with activin A [5] worked out at 0.0022 s⁻¹; with activin AB, 0.0005 s⁻¹; with BMP15 [6], 0.048 s⁻¹; in the assay with BMP10 [7], 0.0018 s⁻¹; with activin B [8], 0.0026 s⁻¹. The kon in the assay with activin A [5] worked out at 2e+06 M⁻¹ s⁻¹; with activin AB, 3.6e+06 M⁻¹ s⁻¹; with BMP15 [6], 2.8e+07 M⁻¹ s⁻¹; in the assay with BMP10 [7], 800000 M⁻¹ s⁻¹; in the assay with activin B [8], 1.6e+06 M⁻¹ s⁻¹.

B3: BMPRII-Fc:ALK2-Fc heterodimer (Fc fusion)
chain 1: SQNQERLCAFKDPYQQDLGIGESRISHENGTILCSKGSTCYGLWEKSKGDINLVKQGCWSHIGDPQECHYEECVVTTTPPSIQNGTYRFCCCSTDLCNVNFTENFPPPDTTPLSPPHSFNRDETGGGTHTCPPCPAPELLGGPSVFLFPPKPKDTLMISRTPEVTCVVVDVSHEDPEVKFNWYVDGVEVHNAKTKPREEQYNSTYRVVSVLTVLHQDWLNGKEYKCKVSNKALPAPIEKTISKAKGQPREPQVYTLPPSRKEMTKNQVSLTCLVKGFYPSDIAVEWESNGQPENNYKTTPPVLKSDGSFFLYSKLTVDKSRWQQGNVFSCSVMHEALHNHYTQKSLSLSPGK
chain 2: MEDEKPKVNPKLYMCVCEGLSCGNEDHCEGQQCFSSLSINDGFHVYQKGCFQVYEQGKMTCKTPPSPGQAVECCQGDWCNRNITAQLPTKGKSFPGTQNFHLETGGGTHTCPPCPAPELLGGPSVFLFPPKPKDTLMISRTPEVTCVVVDVSHEDPEVKFNWYVDGVEVHNAKTKPREEQYNSTYRVVSVLTVLHQDWLNGKEYKCKVSNKALPAPIEKTISKAKGQPREPQVYTLPPSREEMTKNQVSLTCLVKGFYPSDIAVEWESNGQPENNYDTTPPVLDSDGSFFLYSDLTVDKSRWQQGNVFSCSVMHEALHNHYTQKSLSLSPG
notes: C-terminal Lys optional; also called BMPRII-Fc:ALK2-Fc heterodimeric complex
With B3, the Kd turned out to be 0.76 nM with BMP7; 0.5 nM in the assay with BMP9 [9]; 1.1 nM with BMP15 [10]; 2.8 nM with BMP5; 0.3 nM with BMP10 [11]; 5.2 nM with activin B [12]. Moreover, the koff was 0.012 s⁻¹ in the assay with BMP7; 0.0051 s⁻¹ in the assay with BMP9 [9]; 0.011 s⁻¹ with BMP15 [10]; 0.005 s⁻¹ with BMP5; 0.034 s⁻¹ in the assay with BMP10 [11]; 0.0031 s⁻¹ with activin B [12]. The kon with BMP7 stood at 1.5e+07 M⁻¹ s⁻¹; in the assay with BMP9 [9], 1e+07 M⁻¹ s⁻¹; with BMP15 [10], 9.6e+06 M⁻¹ s⁻¹; in the assay with BMP5 it was 1.8e+06 M⁻¹ s⁻¹; with BMP10 [11] it was 1.1e+08 M⁻¹ s⁻¹; with activin B [12], 590000 M⁻¹ s⁻¹.
